Experimental data published in patent publication US20230203185A1 (ECO ANIMAL HEALTH, published 2023).
Positions count from the first letter of the chain named.

What was measured:
[1] = target: T1, native membrane bound porcine CD163 on primary porcine alveolar macrophages (porcine, UniProt Q2VL90 47-1115); assay: flow cytometry, PAM CD163-WT, 4C
T1 construct: also called PAM CD163-WT; pPAM
T1 sequence: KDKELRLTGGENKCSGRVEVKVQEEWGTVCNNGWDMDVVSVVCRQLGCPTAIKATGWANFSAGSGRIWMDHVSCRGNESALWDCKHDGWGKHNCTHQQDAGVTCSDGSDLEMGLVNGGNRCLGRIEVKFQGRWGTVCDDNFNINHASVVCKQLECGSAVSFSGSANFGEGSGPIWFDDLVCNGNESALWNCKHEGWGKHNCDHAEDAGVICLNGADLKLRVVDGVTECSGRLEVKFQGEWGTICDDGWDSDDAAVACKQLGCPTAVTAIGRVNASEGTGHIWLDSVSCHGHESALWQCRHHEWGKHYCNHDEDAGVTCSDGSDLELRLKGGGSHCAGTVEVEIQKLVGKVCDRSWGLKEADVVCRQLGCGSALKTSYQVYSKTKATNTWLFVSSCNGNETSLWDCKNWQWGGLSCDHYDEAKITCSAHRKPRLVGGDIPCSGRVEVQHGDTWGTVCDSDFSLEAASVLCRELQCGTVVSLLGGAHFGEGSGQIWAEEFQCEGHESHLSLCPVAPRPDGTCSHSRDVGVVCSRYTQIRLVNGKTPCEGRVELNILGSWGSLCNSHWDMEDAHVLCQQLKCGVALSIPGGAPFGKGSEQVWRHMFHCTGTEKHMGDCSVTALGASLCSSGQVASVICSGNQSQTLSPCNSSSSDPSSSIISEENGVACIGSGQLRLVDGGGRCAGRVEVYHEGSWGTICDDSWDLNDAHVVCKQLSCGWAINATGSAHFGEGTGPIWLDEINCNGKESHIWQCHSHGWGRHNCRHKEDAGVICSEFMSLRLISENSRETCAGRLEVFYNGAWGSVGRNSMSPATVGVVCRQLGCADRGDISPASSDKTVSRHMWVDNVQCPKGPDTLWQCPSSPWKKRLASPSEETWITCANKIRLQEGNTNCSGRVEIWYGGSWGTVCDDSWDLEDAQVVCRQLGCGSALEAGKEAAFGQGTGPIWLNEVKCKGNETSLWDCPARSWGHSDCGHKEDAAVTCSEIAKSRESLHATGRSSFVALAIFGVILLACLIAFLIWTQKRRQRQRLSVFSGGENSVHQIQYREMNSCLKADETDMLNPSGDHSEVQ
Procedure: Periplasmic Extract (P.E) from the selected clones were incubated with anti-c-myc antibody (Roche; Cat. nr. 11667203001), specific to the c-myc tag present in the soluble VHH, for 30 minutes with agitation at room temperature (RT). The mix (P.E + anti-c-myc antibody) was added to the pPAM or pPAMΔ5 domain (cells with deletion of SRCR domain 5) and incubated for 60 min at 4° C. with gentle shaking.
Cells were washed 3x with 150 µl/well of FACS Buffer and incubated with 50 µl/well of the secondary antibody GAM-APC for 30 min at 4° C. and protected from the light, with shaking.

[2] = target: T1, native membrane bound porcine CD163 on …; assay: flow cytometry, PAM CD163-WT, RT

B1: VHH 001 (1B02) (VHH)
VHH: EVQLVESGGGLVQAGGSLSLSCAASGGTLAMYAMSWFRQAPGKDRKFVAAINTSGRYSRYADSVKGRFTISRDNAKNTATLQMNSLEPEDTAVYYCAATDKGNWALAMSYDYWGQGTQVTVSS
notes: Llama single domain antibody; also called 144(#1); VHCDR3 144(#1); not shown: tags: c-myc tag in periplasmic extract (ELISA, FACS); FLAG and His tags in purified VHH (SPR, infection assays)
Which “% Binding” value [1] does the source give for B1 here?
Its value is 0.97%.

What about the MFI [1] of the same binder?
The MFI was 742 MFI.

What about the “% Binding” value [2] of the same binder?
The value was 0.69%.

And the MFI [2]?
Its MFI is 722 MFI.

B2: VHH 023 (4E10) (VHH)
VHH: QVQLVESGGGLVQAGGSLRLSCVASSRTSSTYAMGWFRQGPGKERDFVAIISFGGTFYADSVKGRFTISRDNAKNTVYLQMNSLKPEDTAVYYCAAGRTLSKRADSYASWGQGTQVTVSS
notes: Llama single domain antibody; also called 70(#23); VHCDR3 70(#23); not shown: tags: c-myc tag in periplasmic extract (ELISA, FACS); FLAG and His tags in purified VHH (SPR, infection assays)
What does the source list for B2?
% Binding [1]: 8.75%; MFI [1]: 1390 MFI; % Binding [2]: 0.56%; MFI [2]: 843 MFI

B3: VHH 002 (1B04) (VHH)
VHH: QVQLVESGGGLVQAGGSLRLSCAASGLTFVTYSMGWFRQAPGKEREFVAAHRWSGSAYYAEHADSVEGRFTISRDYAKNMLYLQMNSLKHEDTAVYYCAAGVGSAAQYRYWGRGTQVTVSS
notes: Llama single domain antibody; also called 76(#2); VHCDR3 76(#2); not shown: tags: c-myc tag in periplasmic extract (ELISA, FACS); FLAG and His tags in purified VHH (SPR, infection assays)
Which results are given for B3?
% Binding [1]: 31.8%; MFI [1]: 1980 MFI; % Binding [2]: 1.02%; MFI [2]: 900 MFI

B4: VHH 008 (1H01) (VHH)
VHH: B3 VHH with L27R, V30G, A105E
notes: Llama single domain antibody; also called 78(#8); VHCDR3 78(#8); not shown: tags: c-myc tag in periplasmic extract (ELISA, FACS); FLAG and His tags in purified VHH (SPR, infection assays)
Which results are given for B4?
% Binding [1]: 38.8%; MFI [1]: 2370 MFI; % Binding [2]: 0.87%; MFI [2]: 963 MFI

B5: VHH 016 (2H11) (VHH)
VHH: EVQLVESGGGLVQAGGSLRLSCAASGRTFAPGSMGWFRQAPGKEREFVAAHRWSGSAYYADYADSVEGRFTISRDYAKNMVYLQMNSLKPGDTAVYYCAAGVGSAAQYTYWGRGTQVTVSS
notes: Llama single domain antibody; also called 77(#16); VHCDR3 77(#16); not shown: tags: c-myc tag in periplasmic extract (ELISA, FACS); FLAG and His tags in purified VHH (SPR, infection assays)
What does the source list for B5?
% Binding [1]: 61%; MFI [1]: 3210 MFI; % Binding [2]: 1.59%; MFI [2]: 927 MFI

B6: VHH 015 (2G01) (VHH)
VHH: QVQLVESGGGLVQAGDTLRLSCTASGRTFSSYSMGWFRQAPGKEREFVAAITWNGYITNYADSVKGRFTISRDNTKNTVFLQMNSLKPEETAVYYCAATTFSTTSPISRTYNYWGPGTQVTVSS
notes: Llama single domain antibody; also called 150(#15); VHCDR3 150(#15); not shown: tags: c-myc tag in periplasmic extract (ELISA, FACS); FLAG and His tags in purified VHH (SPR, infection assays)
For B6, which “% Binding” value [1] is on record?
Its value is 81.5%.

What about the MFI [1] of the same binder?
The MFI was 6220 MFI.

What about the “% Binding” value [2] of the same binder?
Its value is 20.4%.

What about the MFI [2] of the same binder?
Its MFI is 1660 MFI.

B7: VHH 017 (3D03) (VHH)
VHH: QLQLVESGGGLVQPGGSLRLSCAASGFTLDDYTIGWFRQAPGKEREGVSCINSITSNTYYADSVKGRFTISRDNAKNTVYLQMNSLTAEDTAIYYCAADSGLFSGSSCLKYRAMRFGSWGQGTQVTVSS
notes: Llama single domain antibody; also called 29(#17); VHCDR3 29(#17); not shown: tags: c-myc tag in periplasmic extract (ELISA, FACS); FLAG and His tags in purified VHH (SPR, infection assays)
B7 was tested. Which “% Binding” value [1] did it give?
The value was 95.3%.

What about the MFI [1] of the same binder?
Its MFI is 13500 MFI.

What about the “% Binding” value [2] of the same binder?
The value was 37.2%.

What about the MFI [2] of the same binder?
The MFI was 2290 MFI.

B8: VHH 011 (2B06) (VHH)
VHH: EVQLVESGGGLVQAGGSLRLSCAASGRTLSVYGTGWFRQAPGKEREFVAGISGTTGSTLYADSVKGRFTISRDNAKNTVYLQMNSLKSEDTALYYCAAGGRVYITTSSWAYWGQGTQVTVSS
notes: Llama single domain antibody; also called 57(#11); VHCDR3 57(#11); not shown: tags: c-myc tag in periplasmic extract (ELISA, FACS); FLAG and His tags in purified VHH (SPR, infection assays)
Which “% Binding” value [1] does the source give for B8 here?
The value was 74.1%.

What about the MFI [1] of the same binder?
Its MFI is 4270 MFI.

And the “% Binding” value [2]?
The value was 3.32%.

What about the MFI [2] of the same binder?
Its MFI is 983 MFI.

B9: VHH 018 (3E01) (VHH)
VHH: QVQLQESGGGLVQVGGSLRLSCVASGRAPSRYVMGWFRQAPGQEREFVAGIAWSGRAPYADSVKGRSTISRDNAKNTVYLQMNSLKPEDTGVYYCAGGEGAIRWTTLDAYDYWGQGTQVTVSS
notes: Llama single domain antibody; also called 49(#18); VHCDR3 49(#18); not shown: tags: c-myc tag in periplasmic extract (ELISA, FACS); FLAG and His tags in purified VHH (SPR, infection assays)
For B9, which “% Binding” value [1] is on record?
The value was 80.1%.

What about the MFI [1] of the same binder?
The MFI was 5210 MFI.

And the “% Binding” value [2]?
Its value is 1.74%.

What about the MFI [2] of the same binder?
Its MFI is 903 MFI.

B10: VHH 020 (3H11) (VHH)
VHH: B9 VHH with A28T, S67F, T68V, N73S, P87S, R103L, L107P, D108G, D111N
notes: Llama single domain antibody; also called 48(#20); VHCDR3 48(#20); not shown: tags: c-myc tag in periplasmic extract (ELISA, FACS); FLAG and His tags in purified VHH (SPR, infection assays)
Which “% Binding” value [1] does the source give for B10 here?
The value was 95.5%.

And the MFI [1]?
Its MFI is 14000 MFI.

And the “% Binding” value [2]?
Its value is 81.5%.

And the MFI [2]?
Its MFI is 9120 MFI.

B11: VHH 019 (3E11) (VHH)
VHH: B9 VHH with G16S, A24T, A28T, G50A, A52S, S67F, R103K
notes: Llama single domain antibody; also called 47(#19); VHCDR3 47(#19); not shown: tags: c-myc tag in periplasmic extract (ELISA, FACS); FLAG and His tags in purified VHH (SPR, infection assays)
With B11 as the binder, how does the “% Binding” value [1] read?
The value was 93.8%.

And the MFI [1]?
Its MFI is 12500 MFI.

And the “% Binding” value [2]?
Its value is 59.5%.

What about the MFI [2] of the same binder?
The MFI was 3940 MFI.

B12: VHH 012 (2C07) (VHH)
VHH: QLQLVESGGGLVQAGGSLRLSCVASGRTFSRYAMGWFRQAPGKEREFVAAIAWSTGSTYYANSVKGRFAISGDNAKNTVYLQMNSLKPEDTAVYYCAAETRYCSGFGCLDPRTYGSWGQGTQVTVSS
notes: Llama single domain antibody; also called 41(#12); VHCDR3 41(#12); not shown: tags: c-myc tag in periplasmic extract (ELISA, FACS); FLAG and His tags in purified VHH (SPR, infection assays)
B12 was tested. Which “% Binding” value [1] did it give?
The value was 97.9%.

And the MFI [1]?
Its MFI is 26500 MFI.

What about the “% Binding” value [2] of the same binder?
The value was 91.5%.

What about the MFI [2] of the same binder?
Its MFI is 17700 MFI.
